Experiment [1] deals with ZIKV prM/E (ZIKV SPH2015), E E162A (Zika virus (ZIKV SPH2015)). Kind of experiment: flow cytometry on cells. (In general: A flow cytometer gives signals particle by particle.)
Experiment [2] has as its target ZIKV prM/E (ZIKV SPH2015), E G100A (Zika virus (ZIKV SPH2015)). Kind of experiment: flow cytometry on cells.
The target of experiment [3] is ZIKV prM/E (ZIKV SPH2015), E G182A (Zika virus (ZIKV SPH2015)). Kind of experiment: flow cytometry on cells.
Experiment [4] concerns the target ZIKV prM/E (ZIKV SPH2015), prM G59A (Zika virus (ZIKV SPH2015)). Kind of experiment: flow cytometry on cells.
Experiment [5] concerns the target T1, wild-type ZIKV prM/E (ZIKV SPH2015) (Zika virus, SPH2015, UniProt A0A0U3FSM8, strain).
T1 construct: also called WT prM/E; wild-type prM/E; source: HEK-293T, transfected, cells fixed and permeabilised
Description: flow cytometry on cells. The conditions noted are these: one partner purified.

Experiment [6] addresses T2, ZIKV prM protein of heat-denatured ZIKV-VLP (Western band) (Zika virus, Suriname Z1106033, UniProt A0A0U4DG08, strain).
T2 construct: subunit of m13; also called precursor membrane protein
Description: Western blot (Wes capillary electrophoresis); 27 or 240 ng ZIKV-VLP denatured at 70°C for 5 min without reducing agent, electrophoresed, probed with 10 μg/mL MAb. To be noted: both partners purified. For orientation: In western blotting, separated proteins are transferred to a membrane and probed.

Experiment [7] has as its target ZIKV prM/E (ZIKV SPH2015), E E370A (Zika virus (ZIKV SPH2015)). Kind of experiment: flow cytometry on cells.
The target in experiment [8] is ZIKV prM/E (ZIKV SPH2015), E G302A (Zika virus (ZIKV SPH2015)). Description: flow cytometry on cells.
Experiment [9] has as its target ZIKV prM/E (ZIKV SPH2015), E G337A (Zika virus (ZIKV SPH2015)). Kind of experiment: flow cytometry on cells.
In experiment [10] the target is ZIKV prM/E (ZIKV SPH2015), E H398A (Zika virus (ZIKV SPH2015)). Kind of experiment: flow cytometry on cells.
Experiment [11] deals with ZIKV prM/E (ZIKV SPH2015), E H399A (Zika virus (ZIKV SPH2015)). Kind of experiment: flow cytometry on cells.
The target in experiment [12] is ZIKV prM/E (ZIKV SPH2015), E I317A (Zika virus (ZIKV SPH2015)). Description: flow cytometry on cells.
The target of experiment [13] is ZIKV prM/E (ZIKV SPH2015), E K301A (Zika virus (ZIKV SPH2015)). Kind of experiment: flow cytometry on cells.
Experiment [14] deals with ZIKV prM/E (ZIKV SPH2015), E S368A (Zika virus (ZIKV SPH2015)). Description: flow cytometry on cells.
For experiment [15], the target named is ZIKV prM/E (ZIKV SPH2015), E T309A (Zika virus (ZIKV SPH2015)). Kind of experiment: flow cytometry on cells.
In experiment [16] the target is ZIKV prM/E (ZIKV SPH2015), E T335A (Zika virus (ZIKV SPH2015)). Kind of experiment: flow cytometry on cells.
Experiment [17] deals with ZIKV prM/E (ZIKV SPH2015), E T369A (Zika virus (ZIKV SPH2015)). Description: flow cytometry on cells.
Experiment [18] concerns the target ZIKV prM/E (ZIKV SPH2015), E T397A (Zika virus (ZIKV SPH2015)). Kind of experiment: flow cytometry on cells.
The target in experiment [19] is ZIKV prM/E (ZIKV SPH2015), prM D57A (Zika virus (ZIKV SPH2015)). Kind of experiment: flow cytometry on cells.
Experiment [20] concerns the target ZIKV prM/E (ZIKV SPH2015), prM E58A (Zika virus (ZIKV SPH2015)). Description: flow cytometry on cells.
Experiment [21] addresses ZIKV prM/E (ZIKV SPH2015), prM V60A (Zika virus (ZIKV SPH2015)). Kind of experiment: flow cytometry on cells.
Experiment [22] deals with T3, ZIKV virus-like particles (Suriname Z1106033) (Zika virus, Suriname Z1106033, UniProt A0A0U4DG08, strain).
T3 construct: also called ZIKV-VLP; VLP; source: bought: The Native Antigen Company
Description: BLI; Octet HTX; MAb 0.1 to 0.3 μg/mL amine-coupled to AR2G biosensor; ZIKV-VLP 0.1 to 1.0 μg/mL or ZIKV E protein 0.2 to 2 μg/mL in 1x kinetic buffer; association 900 s, dissociation 1,200 s; Langmuir 1:1 model; average of two runs. The conditions noted are these: both partners purified. A general note: In BLI a coated tip is dipped into the sample, and binding shifts an interference pattern.

Experiment [23] concerns the target T4, ZIKV E protein (Suriname Z1106033) (Zika virus, Suriname Z1106033, UniProt A0A0U4DG08, strain).
T4 construct: also called soluble ZIKV E protein
The description is as above. The conditions noted are these: both partners purified.

These results are taken from PMC9175631 (Journal of Virology, 2022).

B1: anti-ZIKV MAb 278-11 (antibody, V domains shown)
VH: QSLEESGGGLVQPEGSLTLACTASEFDSSSNAMCWVRQAPGKGLEWIARIYSGSGTIYYANWARGRFTISKTSSTTVTLQMTSLTDADTATYFCARYNTGGFYYDLWGPGTLVTVSS
VL: ALVMTQTPASVEAAVGGTVTINCQASQRIGTNLAWYQQKPGQPPKVLIYKASTLASGVSSRFIGSGSGTDYTLTISGVECDDAATYYCQQGYSSNDADNTFGGGTEVVVK
notes: recombinant rabbit IgG; source: 293-6E cells, cotransfected, purified (MabSelect SuRe protein A)
For B1, the antibody binding reactivity (% WT) stood at 77.8 % WT in experiment [1], 95.1 % WT in [2], 85.9 % WT in experiment [3] and 28.5 % WT in [4]. The binding result in experiment [5] and in experiment [6] was “binds” each time.

B2: anti-ZIKV MAb 78-2 (antibody, V domains shown)
VH: QQQLVESGGGLVKPGASLTLNCKASGLDFSTNSYMCWVRQAPGKGLEWIACIYVGDSSEIYYASWAKGRFTISKTSSTTVTLQMTSLTAADTATYFCARDLPSFTAPYAGYLRLWGPGTLVTVSS
VL: QPVLTQPPSLSASLGTTARLTCTLRTGYNVGDYPLLWLQRVPGRPPRYLLTYHTEEFKHQGSGVHSRFSGSKDASENAGVLSISGLQPEDEANYYCYTVHATESSLHYVFGGGTQLTVT
B2: the antibody binding reactivity (% WT) is 101 % WT in experiment [1]; 92.7 % WT in experiment [7]; 110 % WT in experiment [3]; 69.2 % WT in experiment [8]; 59.7 % WT in experiment [9]; 92.9 % WT in experiment [10]. Moreover, the antibody binding reactivity (% WT) in experiment [11] is 97.2 % WT; in [12] it was 61.2 % WT; in experiment [13] it was 82.5 % WT; in [14] it was 87.5 % WT; in experiment [15] it was 96.2 % WT; in [16] it was 71.6 % WT. For the same molecule, the antibody binding reactivity (% WT) was found to be 113 % WT in experiment [17]; 147 % WT in experiment [18]; 123 % WT in experiment [19]; 130 % WT in experiment [20]; 117 % WT in experiment [4]; 113 % WT in experiment [21]. Also, the binding result in experiment [5] is recorded as “binds”. Also, the Kd (commonly the constant that tells how readily two partners part at equilibrium) in experiment [22] amounted to 0.19 nM; in [23] it was 0.1 nM. Moreover, the koff – broadly, a measure of how fast the partners let go of each other – in experiment [22] is 4.28e-05 s⁻¹; in experiment [23], 1.94e-05 s⁻¹. Besides, the figures for the kon in experiment [22] and in experiment [23] were 221000 M⁻¹ s⁻¹ and 192000 M⁻¹ s⁻¹, respectively.
